Experimental findings from US20250057976A1 are described below.

One assay addresses IL31RA (mouse) (UniProt Q8K5B1). Kind of assay: cell-based or functional assay.
A further assay deals with TrkA (mouse) (UniProt Q3UFB7). The assay can be described thus: cell-based or functional assay.

Where only a bound is given, the exact number is not on record here.

UniProt Q3UFB7, sequence (Q3UFB7 34-799): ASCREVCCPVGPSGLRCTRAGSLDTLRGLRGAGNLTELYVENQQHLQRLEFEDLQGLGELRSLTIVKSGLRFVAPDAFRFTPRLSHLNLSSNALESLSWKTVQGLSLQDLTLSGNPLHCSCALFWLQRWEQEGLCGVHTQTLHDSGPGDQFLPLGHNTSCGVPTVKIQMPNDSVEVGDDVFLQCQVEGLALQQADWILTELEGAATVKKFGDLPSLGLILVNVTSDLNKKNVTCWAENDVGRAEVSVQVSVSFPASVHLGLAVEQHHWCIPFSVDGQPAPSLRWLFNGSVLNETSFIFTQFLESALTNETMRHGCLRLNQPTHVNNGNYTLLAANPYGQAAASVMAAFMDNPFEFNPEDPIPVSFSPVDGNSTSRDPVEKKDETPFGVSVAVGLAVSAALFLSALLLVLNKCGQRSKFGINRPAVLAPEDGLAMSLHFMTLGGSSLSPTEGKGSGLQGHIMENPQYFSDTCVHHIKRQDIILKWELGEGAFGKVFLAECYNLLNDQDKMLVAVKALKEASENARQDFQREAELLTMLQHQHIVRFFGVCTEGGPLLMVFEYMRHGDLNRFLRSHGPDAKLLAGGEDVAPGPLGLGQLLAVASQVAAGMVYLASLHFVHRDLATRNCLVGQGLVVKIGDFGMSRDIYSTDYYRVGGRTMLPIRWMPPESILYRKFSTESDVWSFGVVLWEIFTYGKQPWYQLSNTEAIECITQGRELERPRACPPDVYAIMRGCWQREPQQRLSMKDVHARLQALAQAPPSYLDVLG
UniProt Q8K5B1, sequence (Q8K5B1 19-716): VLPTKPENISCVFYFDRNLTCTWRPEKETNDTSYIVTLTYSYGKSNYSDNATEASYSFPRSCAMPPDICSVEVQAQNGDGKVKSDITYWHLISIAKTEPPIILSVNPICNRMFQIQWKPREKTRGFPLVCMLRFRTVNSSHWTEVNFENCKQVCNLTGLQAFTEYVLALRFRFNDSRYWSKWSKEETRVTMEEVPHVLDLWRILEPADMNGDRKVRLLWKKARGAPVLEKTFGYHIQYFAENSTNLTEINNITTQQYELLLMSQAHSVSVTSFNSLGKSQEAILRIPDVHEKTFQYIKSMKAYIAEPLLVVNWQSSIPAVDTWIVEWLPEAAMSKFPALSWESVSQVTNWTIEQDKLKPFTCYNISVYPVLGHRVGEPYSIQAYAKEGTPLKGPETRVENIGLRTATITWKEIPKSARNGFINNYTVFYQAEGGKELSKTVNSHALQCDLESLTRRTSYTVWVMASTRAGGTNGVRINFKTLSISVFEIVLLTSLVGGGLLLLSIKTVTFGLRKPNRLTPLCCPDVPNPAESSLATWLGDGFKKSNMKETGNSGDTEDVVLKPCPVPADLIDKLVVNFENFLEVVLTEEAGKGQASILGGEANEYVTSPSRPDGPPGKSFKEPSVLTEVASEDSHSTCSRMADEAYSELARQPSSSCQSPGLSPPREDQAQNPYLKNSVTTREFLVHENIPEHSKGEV

The substance “IL31^K134A-SNAP::AAV2-ΔHSPG (from UniProt P03135 1-735)” displayed an overlap of virally infected cells with K14 positive keratinocytes, skin of wildtype mice, subcutaneous 3E+10 VG in the assay with IL31RA (mouse) of 100 percent.
In the assay with TrkA (mouse), “NGF^R121W-SNAP::AAV2-ΔHSPG (from UniProt P03135 1-735)” gave a TrkA positive DRG cells infected after retro-orbital injection of 3E+10 VG of 80%; an infected DRG cells that are TrkA positive after retro-orbital injection of 3E+10 VG of 83%; an overlap of virally infected (tdTomato) sensory neurons with TrkA antibody staining, trigeminal ganglia, 3 weeks after IV injection of over 80%.
